T1: FcγRIIa R (extracellular domain, His tag at the C terminus) (human, UniProt P12318 34-217)
T1 construct: extracellular domain; Soluble analyte in Biacore; also called FcgRIIa R type; 2aR
T1 sequence (looked up): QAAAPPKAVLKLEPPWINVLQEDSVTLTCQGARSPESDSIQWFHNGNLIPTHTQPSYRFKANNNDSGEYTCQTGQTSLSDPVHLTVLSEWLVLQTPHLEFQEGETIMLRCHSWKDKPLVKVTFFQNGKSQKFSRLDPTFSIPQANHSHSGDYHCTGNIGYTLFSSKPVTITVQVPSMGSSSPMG

B1: GpH7-B3 variant H268_13S/GpL16-k0 (antibody, human IgG1, kappa)
heavy: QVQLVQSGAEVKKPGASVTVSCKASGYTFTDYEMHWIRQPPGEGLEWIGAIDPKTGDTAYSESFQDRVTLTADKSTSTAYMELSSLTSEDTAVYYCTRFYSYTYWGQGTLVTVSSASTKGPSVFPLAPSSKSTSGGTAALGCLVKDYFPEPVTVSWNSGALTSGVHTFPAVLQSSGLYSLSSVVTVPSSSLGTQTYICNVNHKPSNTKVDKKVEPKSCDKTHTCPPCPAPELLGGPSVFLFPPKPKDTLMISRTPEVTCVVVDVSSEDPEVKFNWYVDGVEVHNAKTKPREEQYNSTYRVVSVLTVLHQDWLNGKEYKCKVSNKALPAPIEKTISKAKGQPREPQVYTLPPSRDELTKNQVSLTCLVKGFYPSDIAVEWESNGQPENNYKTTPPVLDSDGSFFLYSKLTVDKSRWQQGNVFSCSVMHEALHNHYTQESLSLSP
light: DIVMTQSPLSLPVTPGEPASISCQASESLVHSNRNTYLHWYLQKPGQSPQLLIYKVSNRFSGVPDRFSGSGSGTDFTLKISRVEAEDVGVYYCSQNTHVPPTFGQGTKVEIERTVAAPSVFIFPPSDEQLKSGTASVVCLLNNFYPREAKVQWKVDNALQSGNSQESVTEQDSKDSTYSLSSTLTLSKADYEKHKVYACEVTHQGLSSPVTKSFNRGEC
notes: homodimerized; also called Ho Ab
B2: GpH7-B3 variant H268_18N/GpL16-k0 (antibody, human IgG1, kappa)
heavy: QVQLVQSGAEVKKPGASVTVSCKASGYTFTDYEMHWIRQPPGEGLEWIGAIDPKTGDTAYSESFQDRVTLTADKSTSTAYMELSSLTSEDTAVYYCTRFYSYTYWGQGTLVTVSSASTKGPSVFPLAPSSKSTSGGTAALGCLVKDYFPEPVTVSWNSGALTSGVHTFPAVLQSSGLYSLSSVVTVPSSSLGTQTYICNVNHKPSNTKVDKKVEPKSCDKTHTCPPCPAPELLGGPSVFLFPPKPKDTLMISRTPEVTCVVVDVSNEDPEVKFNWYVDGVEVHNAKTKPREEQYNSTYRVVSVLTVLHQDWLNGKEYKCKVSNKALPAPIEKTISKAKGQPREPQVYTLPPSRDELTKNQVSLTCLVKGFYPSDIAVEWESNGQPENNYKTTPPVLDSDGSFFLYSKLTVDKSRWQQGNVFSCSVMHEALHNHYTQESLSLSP
light: DIVMTQSPLSLPVTPGEPASISCQASESLVHSNRNTYLHWYLQKPGQSPQLLIYKVSNRFSGVPDRFSGSGSGTDFTLKISRVEAEDVGVYYCSQNTHVPPTFGQGTKVEIERTVAAPSVFIFPPSDEQLKSGTASVVCLLNNFYPREAKVQWKVDNALQSGNSQESVTEQDSKDSTYSLSSTLTLSKADYEKHKVYACEVTHQGLSSPVTKSFNRGEC
notes: as for B1
B3: GpH7-B3 variant I332_04F/GpL16-k0 (antibody, human IgG1, kappa)
heavy: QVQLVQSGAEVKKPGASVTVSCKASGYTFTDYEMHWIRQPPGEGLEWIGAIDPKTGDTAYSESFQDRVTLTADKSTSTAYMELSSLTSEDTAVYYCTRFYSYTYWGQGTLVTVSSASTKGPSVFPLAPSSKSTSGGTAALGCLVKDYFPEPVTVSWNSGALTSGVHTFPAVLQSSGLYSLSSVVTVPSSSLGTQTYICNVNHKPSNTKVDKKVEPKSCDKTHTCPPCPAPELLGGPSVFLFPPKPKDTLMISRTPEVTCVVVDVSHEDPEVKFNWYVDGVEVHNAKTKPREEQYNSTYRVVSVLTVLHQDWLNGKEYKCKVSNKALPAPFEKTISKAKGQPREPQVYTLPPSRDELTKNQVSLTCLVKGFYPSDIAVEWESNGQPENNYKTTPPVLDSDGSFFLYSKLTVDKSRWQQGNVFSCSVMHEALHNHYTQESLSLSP
light: DIVMTQSPLSLPVTPGEPASISCQASESLVHSNRNTYLHWYLQKPGQSPQLLIYKVSNRFSGVPDRFSGSGSGTDFTLKISRVEAEDVGVYYCSQNTHVPPTFGQGTKVEIERTVAAPSVFIFPPSDEQLKSGTASVVCLLNNFYPREAKVQWKVDNALQSGNSQESVTEQDSKDSTYSLSSTLTLSKADYEKHKVYACEVTHQGLSSPVTKSFNRGEC
notes: as for B1
B4: GpH7-B3 variant I332_09D/GpL16-k0 (antibody, human IgG1, kappa)
heavy: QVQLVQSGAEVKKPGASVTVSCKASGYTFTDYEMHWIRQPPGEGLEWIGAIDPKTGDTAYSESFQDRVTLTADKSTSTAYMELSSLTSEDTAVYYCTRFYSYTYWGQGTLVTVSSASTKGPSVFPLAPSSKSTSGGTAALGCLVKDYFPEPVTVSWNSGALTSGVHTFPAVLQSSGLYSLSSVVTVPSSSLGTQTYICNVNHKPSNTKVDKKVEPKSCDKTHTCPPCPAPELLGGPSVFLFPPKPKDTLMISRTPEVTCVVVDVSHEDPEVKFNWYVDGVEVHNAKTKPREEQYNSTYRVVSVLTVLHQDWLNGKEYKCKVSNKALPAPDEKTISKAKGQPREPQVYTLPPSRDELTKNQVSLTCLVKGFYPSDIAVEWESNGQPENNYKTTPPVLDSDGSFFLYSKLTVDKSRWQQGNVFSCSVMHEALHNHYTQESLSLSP
light: DIVMTQSPLSLPVTPGEPASISCQASESLVHSNRNTYLHWYLQKPGQSPQLLIYKVSNRFSGVPDRFSGSGSGTDFTLKISRVEAEDVGVYYCSQNTHVPPTFGQGTKVEIERTVAAPSVFIFPPSDEQLKSGTASVVCLLNNFYPREAKVQWKVDNALQSGNSQESVTEQDSKDSTYSLSSTLTLSKADYEKHKVYACEVTHQGLSSPVTKSFNRGEC
notes: as for B1
B5: GpH7-B3 variant I332_10E/GpL16-k0 (antibody, human IgG1, kappa)
heavy: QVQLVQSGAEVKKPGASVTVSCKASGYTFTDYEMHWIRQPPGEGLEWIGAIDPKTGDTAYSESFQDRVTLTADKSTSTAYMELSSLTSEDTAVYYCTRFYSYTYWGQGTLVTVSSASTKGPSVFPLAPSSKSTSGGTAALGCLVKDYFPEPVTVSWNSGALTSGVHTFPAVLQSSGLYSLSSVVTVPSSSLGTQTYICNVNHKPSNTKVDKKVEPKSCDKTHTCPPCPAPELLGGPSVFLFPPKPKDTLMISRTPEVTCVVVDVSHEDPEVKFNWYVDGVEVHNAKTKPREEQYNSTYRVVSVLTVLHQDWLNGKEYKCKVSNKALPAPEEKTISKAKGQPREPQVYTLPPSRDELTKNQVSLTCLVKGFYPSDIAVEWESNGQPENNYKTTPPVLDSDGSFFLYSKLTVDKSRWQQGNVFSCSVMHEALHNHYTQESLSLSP
light: DIVMTQSPLSLPVTPGEPASISCQASESLVHSNRNTYLHWYLQKPGQSPQLLIYKVSNRFSGVPDRFSGSGSGTDFTLKISRVEAEDVGVYYCSQNTHVPPTFGQGTKVEIERTVAAPSVFIFPPSDEQLKSGTASVVCLLNNFYPREAKVQWKVDNALQSGNSQESVTEQDSKDSTYSLSSTLTLSKADYEKHKVYACEVTHQGLSSPVTKSFNRGEC
notes: as for B1
B6: GpH7-B3 variant I332_15Y/GpL16-k0 (antibody, human IgG1, kappa)
heavy: not shown
light: DIVMTQSPLSLPVTPGEPASISCQASESLVHSNRNTYLHWYLQKPGQSPQLLIYKVSNRFSGVPDRFSGSGSGTDFTLKISRVEAEDVGVYYCSQNTHVPPTFGQGTKVEIERTVAAPSVFIFPPSDEQLKSGTASVVCLLNNFYPREAKVQWKVDNALQSGNSQESVTEQDSKDSTYSLSSTLTLSKADYEKHKVYACEVTHQGLSSPVTKSFNRGEC
notes: as for B1
B7: GpH7-B3 variant K326_06M/GpL16-k0 (antibody, human IgG1, kappa)
heavy: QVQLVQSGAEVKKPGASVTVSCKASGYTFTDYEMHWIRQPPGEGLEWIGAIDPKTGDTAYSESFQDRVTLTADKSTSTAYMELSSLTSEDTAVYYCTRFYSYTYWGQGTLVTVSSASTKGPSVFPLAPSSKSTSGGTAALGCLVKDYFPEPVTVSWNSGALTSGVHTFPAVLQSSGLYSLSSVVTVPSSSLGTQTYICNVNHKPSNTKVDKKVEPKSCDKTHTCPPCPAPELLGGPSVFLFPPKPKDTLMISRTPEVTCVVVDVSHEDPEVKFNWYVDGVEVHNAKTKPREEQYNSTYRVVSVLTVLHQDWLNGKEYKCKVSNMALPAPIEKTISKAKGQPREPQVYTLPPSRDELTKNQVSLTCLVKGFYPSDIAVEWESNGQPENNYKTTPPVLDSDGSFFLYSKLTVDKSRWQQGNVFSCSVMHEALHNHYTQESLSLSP
light: DIVMTQSPLSLPVTPGEPASISCQASESLVHSNRNTYLHWYLQKPGQSPQLLIYKVSNRFSGVPDRFSGSGSGTDFTLKISRVEAEDVGVYYCSQNTHVPPTFGQGTKVEIERTVAAPSVFIFPPSDEQLKSGTASVVCLLNNFYPREAKVQWKVDNALQSGNSQESVTEQDSKDSTYSLSSTLTLSKADYEKHKVYACEVTHQGLSSPVTKSFNRGEC
notes: as for B1
B8: GpH7-B3 variant K326_09D/GpL16-k0 (antibody, human IgG1, kappa)
heavy: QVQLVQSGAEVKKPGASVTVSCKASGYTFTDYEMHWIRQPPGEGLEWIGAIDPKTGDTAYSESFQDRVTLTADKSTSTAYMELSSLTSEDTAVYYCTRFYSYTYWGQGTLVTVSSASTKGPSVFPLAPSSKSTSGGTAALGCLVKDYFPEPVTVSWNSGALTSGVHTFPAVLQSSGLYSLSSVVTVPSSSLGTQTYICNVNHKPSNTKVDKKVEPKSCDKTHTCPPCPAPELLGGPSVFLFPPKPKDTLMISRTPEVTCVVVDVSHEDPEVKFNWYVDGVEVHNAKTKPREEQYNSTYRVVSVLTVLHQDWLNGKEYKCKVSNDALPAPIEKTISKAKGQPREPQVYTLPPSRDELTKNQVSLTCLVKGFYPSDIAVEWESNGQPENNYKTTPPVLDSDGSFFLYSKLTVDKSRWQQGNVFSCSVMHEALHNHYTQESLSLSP
light: DIVMTQSPLSLPVTPGEPASISCQASESLVHSNRNTYLHWYLQKPGQSPQLLIYKVSNRFSGVPDRFSGSGSGTDFTLKISRVEAEDVGVYYCSQNTHVPPTFGQGTKVEIERTVAAPSVFIFPPSDEQLKSGTASVVCLLNNFYPREAKVQWKVDNALQSGNSQESVTEQDSKDSTYSLSSTLTLSKADYEKHKVYACEVTHQGLSSPVTKSFNRGEC
notes: as for B1
B9: GpH7-B3 variant K326_10E/GpL16-k0 (antibody, human IgG1, kappa)
heavy: not shown
light: DIVMTQSPLSLPVTPGEPASISCQASESLVHSNRNTYLHWYLQKPGQSPQLLIYKVSNRFSGVPDRFSGSGSGTDFTLKISRVEAEDVGVYYCSQNTHVPPTFGQGTKVEIERTVAAPSVFIFPPSDEQLKSGTASVVCLLNNFYPREAKVQWKVDNALQSGNSQESVTEQDSKDSTYSLSSTLTLSKADYEKHKVYACEVTHQGLSSPVTKSFNRGEC
notes: as for B1
B10: GpH7-B3 variant K326_14T/GpL16-k0 (antibody, human IgG1, kappa)
heavy: not shown
light: DIVMTQSPLSLPVTPGEPASISCQASESLVHSNRNTYLHWYLQKPGQSPQLLIYKVSNRFSGVPDRFSGSGSGTDFTLKISRVEAEDVGVYYCSQNTHVPPTFGQGTKVEIERTVAAPSVFIFPPSDEQLKSGTASVVCLLNNFYPREAKVQWKVDNALQSGNSQESVTEQDSKDSTYSLSSTLTLSKADYEKHKVYACEVTHQGLSSPVTKSFNRGEC
notes: as for B1
B11: GpH7-B3 variant K326_16H/GpL16-k0 (antibody, human IgG1, kappa)
heavy: not shown
light: DIVMTQSPLSLPVTPGEPASISCQASESLVHSNRNTYLHWYLQKPGQSPQLLIYKVSNRFSGVPDRFSGSGSGTDFTLKISRVEAEDVGVYYCSQNTHVPPTFGQGTKVEIERTVAAPSVFIFPPSDEQLKSGTASVVCLLNNFYPREAKVQWKVDNALQSGNSQESVTEQDSKDSTYSLSSTLTLSKADYEKHKVYACEVTHQGLSSPVTKSFNRGEC
notes: as for B1
B12: GpH7-B3 variant K326_19Q/GpL16-k0 (antibody, human IgG1, kappa)
heavy: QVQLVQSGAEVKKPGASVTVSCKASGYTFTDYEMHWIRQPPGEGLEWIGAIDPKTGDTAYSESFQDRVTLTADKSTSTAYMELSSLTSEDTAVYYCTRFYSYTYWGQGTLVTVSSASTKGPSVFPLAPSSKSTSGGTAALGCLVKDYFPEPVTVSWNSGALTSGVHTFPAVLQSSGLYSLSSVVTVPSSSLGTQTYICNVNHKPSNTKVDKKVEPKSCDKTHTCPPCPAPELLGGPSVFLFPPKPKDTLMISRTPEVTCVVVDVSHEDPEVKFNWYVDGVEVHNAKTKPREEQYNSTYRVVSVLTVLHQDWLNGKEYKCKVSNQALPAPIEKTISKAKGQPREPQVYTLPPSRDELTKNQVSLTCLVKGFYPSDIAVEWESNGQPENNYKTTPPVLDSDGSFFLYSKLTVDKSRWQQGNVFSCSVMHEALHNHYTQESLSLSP
light: DIVMTQSPLSLPVTPGEPASISCQASESLVHSNRNTYLHWYLQKPGQSPQLLIYKVSNRFSGVPDRFSGSGSGTDFTLKISRVEAEDVGVYYCSQNTHVPPTFGQGTKVEIERTVAAPSVFIFPPSDEQLKSGTASVVCLLNNFYPREAKVQWKVDNALQSGNSQESVTEQDSKDSTYSLSSTLTLSKADYEKHKVYACEVTHQGLSSPVTKSFNRGEC
notes: as for B1
B13: GpH7-B3 variant K334_03V/GpL16-k0 (antibody, human IgG1, kappa)
heavy: not shown
light: DIVMTQSPLSLPVTPGEPASISCQASESLVHSNRNTYLHWYLQKPGQSPQLLIYKVSNRFSGVPDRFSGSGSGTDFTLKISRVEAEDVGVYYCSQNTHVPPTFGQGTKVEIERTVAAPSVFIFPPSDEQLKSGTASVVCLLNNFYPREAKVQWKVDNALQSGNSQESVTEQDSKDSTYSLSSTLTLSKADYEKHKVYACEVTHQGLSSPVTKSFNRGEC
notes: as for B1
B14: GpH7-B3 variant K334_07I/GpL16-k0 (antibody, human IgG1, kappa)
heavy: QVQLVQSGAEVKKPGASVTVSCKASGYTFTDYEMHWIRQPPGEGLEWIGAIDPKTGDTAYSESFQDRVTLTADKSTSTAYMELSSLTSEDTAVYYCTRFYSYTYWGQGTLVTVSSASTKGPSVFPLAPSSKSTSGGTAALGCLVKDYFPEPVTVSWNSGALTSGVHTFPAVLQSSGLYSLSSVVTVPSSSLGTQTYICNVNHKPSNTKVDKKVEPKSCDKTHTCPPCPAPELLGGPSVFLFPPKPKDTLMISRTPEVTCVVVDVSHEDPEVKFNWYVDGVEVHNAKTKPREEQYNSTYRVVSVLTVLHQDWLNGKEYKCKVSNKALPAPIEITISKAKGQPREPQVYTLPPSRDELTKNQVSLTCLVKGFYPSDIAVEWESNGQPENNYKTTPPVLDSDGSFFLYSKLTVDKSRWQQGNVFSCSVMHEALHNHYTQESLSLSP
light: DIVMTQSPLSLPVTPGEPASISCQASESLVHSNRNTYLHWYLQKPGQSPQLLIYKVSNRFSGVPDRFSGSGSGTDFTLKISRVEAEDVGVYYCSQNTHVPPTFGQGTKVEIERTVAAPSVFIFPPSDEQLKSGTASVVCLLNNFYPREAKVQWKVDNALQSGNSQESVTEQDSKDSTYSLSSTLTLSKADYEKHKVYACEVTHQGLSSPVTKSFNRGEC
notes: as for B1
B15: GpH7-B3 variant K334_14T/GpL16-k0 (antibody, human IgG1, kappa)
heavy: not shown
light: DIVMTQSPLSLPVTPGEPASISCQASESLVHSNRNTYLHWYLQKPGQSPQLLIYKVSNRFSGVPDRFSGSGSGTDFTLKISRVEAEDVGVYYCSQNTHVPPTFGQGTKVEIERTVAAPSVFIFPPSDEQLKSGTASVVCLLNNFYPREAKVQWKVDNALQSGNSQESVTEQDSKDSTYSLSSTLTLSKADYEKHKVYACEVTHQGLSSPVTKSFNRGEC
notes: as for B1
B16: GpH7-B3 variant K334_15Y/GpL16-k0 (antibody, human IgG1, kappa)
heavy: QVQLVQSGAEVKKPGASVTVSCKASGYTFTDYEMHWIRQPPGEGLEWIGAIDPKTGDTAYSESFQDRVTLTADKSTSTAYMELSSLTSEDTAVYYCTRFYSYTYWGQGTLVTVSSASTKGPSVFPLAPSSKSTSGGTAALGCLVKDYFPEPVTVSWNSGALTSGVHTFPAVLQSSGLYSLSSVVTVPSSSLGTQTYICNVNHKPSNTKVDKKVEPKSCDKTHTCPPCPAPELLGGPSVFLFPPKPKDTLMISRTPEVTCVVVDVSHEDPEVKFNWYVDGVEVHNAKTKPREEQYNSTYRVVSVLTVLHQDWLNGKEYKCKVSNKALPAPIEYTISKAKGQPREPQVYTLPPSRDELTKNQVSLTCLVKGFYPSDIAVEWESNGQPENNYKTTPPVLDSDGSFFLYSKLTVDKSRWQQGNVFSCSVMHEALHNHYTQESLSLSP
light: DIVMTQSPLSLPVTPGEPASISCQASESLVHSNRNTYLHWYLQKPGQSPQLLIYKVSNRFSGVPDRFSGSGSGTDFTLKISRVEAEDVGVYYCSQNTHVPPTFGQGTKVEIERTVAAPSVFIFPPSDEQLKSGTASVVCLLNNFYPREAKVQWKVDNALQSGNSQESVTEQDSKDSTYSLSSTLTLSKADYEKHKVYACEVTHQGLSSPVTKSFNRGEC
notes: as for B1
B17: GpH7-B3 variant K334_16H/GpL16-k0 (antibody, human IgG1, kappa)
heavy: not shown
light: DIVMTQSPLSLPVTPGEPASISCQASESLVHSNRNTYLHWYLQKPGQSPQLLIYKVSNRFSGVPDRFSGSGSGTDFTLKISRVEAEDVGVYYCSQNTHVPPTFGQGTKVEIERTVAAPSVFIFPPSDEQLKSGTASVVCLLNNFYPREAKVQWKVDNALQSGNSQESVTEQDSKDSTYSLSSTLTLSKADYEKHKVYACEVTHQGLSSPVTKSFNRGEC
notes: as for B1
B18: GpH7-B3 variant K334_18N/GpL16-k0 (antibody, human IgG1, kappa)
heavy: not shown
light: DIVMTQSPLSLPVTPGEPASISCQASESLVHSNRNTYLHWYLQKPGQSPQLLIYKVSNRFSGVPDRFSGSGSGTDFTLKISRVEAEDVGVYYCSQNTHVPPTFGQGTKVEIERTVAAPSVFIFPPSDEQLKSGTASVVCLLNNFYPREAKVQWKVDNALQSGNSQESVTEQDSKDSTYSLSSTLTLSKADYEKHKVYACEVTHQGLSSPVTKSFNRGEC
notes: as for B1
B19: GpH7-B3 variant L328_03V/GpL16-k0 (antibody, human IgG1, kappa)
heavy: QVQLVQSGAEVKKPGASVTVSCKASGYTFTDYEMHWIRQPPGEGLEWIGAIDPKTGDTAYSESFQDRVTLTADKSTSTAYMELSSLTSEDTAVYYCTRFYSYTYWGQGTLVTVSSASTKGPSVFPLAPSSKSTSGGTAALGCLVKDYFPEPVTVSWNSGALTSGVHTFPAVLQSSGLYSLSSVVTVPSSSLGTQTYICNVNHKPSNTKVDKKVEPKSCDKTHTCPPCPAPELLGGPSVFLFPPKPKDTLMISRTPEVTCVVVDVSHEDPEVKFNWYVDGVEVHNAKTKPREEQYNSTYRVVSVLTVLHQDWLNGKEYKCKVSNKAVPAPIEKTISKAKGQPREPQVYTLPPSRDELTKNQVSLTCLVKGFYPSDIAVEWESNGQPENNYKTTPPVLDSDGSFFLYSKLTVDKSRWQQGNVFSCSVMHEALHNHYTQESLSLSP
light: DIVMTQSPLSLPVTPGEPASISCQASESLVHSNRNTYLHWYLQKPGQSPQLLIYKVSNRFSGVPDRFSGSGSGTDFTLKISRVEAEDVGVYYCSQNTHVPPTFGQGTKVEIERTVAAPSVFIFPPSDEQLKSGTASVVCLLNNFYPREAKVQWKVDNALQSGNSQESVTEQDSKDSTYSLSSTLTLSKADYEKHKVYACEVTHQGLSSPVTKSFNRGEC
notes: as for B1
B20: GpH7-B3 variant L328_04F/GpL16-k0 (antibody, human IgG1, kappa)
heavy: not shown
light: DIVMTQSPLSLPVTPGEPASISCQASESLVHSNRNTYLHWYLQKPGQSPQLLIYKVSNRFSGVPDRFSGSGSGTDFTLKISRVEAEDVGVYYCSQNTHVPPTFGQGTKVEIERTVAAPSVFIFPPSDEQLKSGTASVVCLLNNFYPREAKVQWKVDNALQSGNSQESVTEQDSKDSTYSLSSTLTLSKADYEKHKVYACEVTHQGLSSPVTKSFNRGEC
notes: as for B1
B21: GpH7-B3 variant L328_06M/GpL16-k0 (antibody, human IgG1, kappa)
heavy: not shown
light: DIVMTQSPLSLPVTPGEPASISCQASESLVHSNRNTYLHWYLQKPGQSPQLLIYKVSNRFSGVPDRFSGSGSGTDFTLKISRVEAEDVGVYYCSQNTHVPPTFGQGTKVEIERTVAAPSVFIFPPSDEQLKSGTASVVCLLNNFYPREAKVQWKVDNALQSGNSQESVTEQDSKDSTYSLSSTLTLSKADYEKHKVYACEVTHQGLSSPVTKSFNRGEC
notes: as for B1

molecular target: T1, FcγRIIa R (extracellular domain, His …); experiment: SPR (Biacore), relative binding, control GpH7-B3/GpL16-k0 = 100
Description: Analysis of interaction between objective antibody and the FcγR was carried out using Biacore T100 (GE Healthcare). HBS-EP+ (GE Healthcare) was used as the running buffer, and the measurement temperature was set to 25° C. Chips produced by immobilizing the antigen peptide by the amine coupling method to a Series S Sencor Chip CM5 (GE Healthcare), or alternatively, chips produced by allowing preliminarily biotinylated antigen peptides to interact with and immobilize onto a Series S Sensor Chip SA (certified) (GE Healthcare) were used. Antibodies of interest were captured onto an antigen peptide-immobilized chip, and allowed to interact to each FcγR diluted with running buffer. To regenerate and repeatedly use the chip, the antibodies captured on the chip were washed off by reacting 10 mM glycine-HCl, pH 1.5.

First: B1
Second: B2
The Ho/Con_2aR of the first is higher: 135 % of control for the first, 134 % of control for the second.

Compared with B3, B4 is higher in Ho/Con_2aR: 109 % of control for the first, 127 % of control for the second.

First: B5
Second: B6
The Ho/Con_2aR of the first is higher: 123 % of control for the first, 111 % of control for the second.

Compared with B7, B8 is higher in Ho/Con_2aR: 143 % of control for the first, 158 % of control for the second.

First: B9
Second: B10
The Ho/Con_2aR of the first is higher: 156 % of control for the first, 141 % of control for the second.

First: B11
Second: B12
The Ho/Con_2aR of the first is lower: 123 % of control for the first, 137 % of control for the second.

Going from B13 to B14, the Ho/Con_2aR falls from 123 % of control to 121 % of control.

Going from B15 to B16, the Ho/Con_2aR falls from 117 % of control to 112 % of control.

Compared with B17, B18 is higher in Ho/Con_2aR: 111 % of control for the first, 113 % of control for the second.

Going from B19 to B20, the Ho/Con_2aR rises from 116 % of control to 145 % of control.

For B21, the Ho/Con_2aR was 124 % of control.
